According to patent US20170073690A1 (CEMM FORSCHUNGZENTRUM FUER MOLEKULARE MEDIZIN, published 2017):

What was measured:
SLC38A1 = target: T1, SLC38A1 (human, UniProt Q9H2H9 1-487); assay: TAP-LC-MS/MS, SII-HA-tagged bait, HEK293 Flp-In TREx cells
T1 construct: N-terminally SII-HA tagged bait
T1 sequence (looked up): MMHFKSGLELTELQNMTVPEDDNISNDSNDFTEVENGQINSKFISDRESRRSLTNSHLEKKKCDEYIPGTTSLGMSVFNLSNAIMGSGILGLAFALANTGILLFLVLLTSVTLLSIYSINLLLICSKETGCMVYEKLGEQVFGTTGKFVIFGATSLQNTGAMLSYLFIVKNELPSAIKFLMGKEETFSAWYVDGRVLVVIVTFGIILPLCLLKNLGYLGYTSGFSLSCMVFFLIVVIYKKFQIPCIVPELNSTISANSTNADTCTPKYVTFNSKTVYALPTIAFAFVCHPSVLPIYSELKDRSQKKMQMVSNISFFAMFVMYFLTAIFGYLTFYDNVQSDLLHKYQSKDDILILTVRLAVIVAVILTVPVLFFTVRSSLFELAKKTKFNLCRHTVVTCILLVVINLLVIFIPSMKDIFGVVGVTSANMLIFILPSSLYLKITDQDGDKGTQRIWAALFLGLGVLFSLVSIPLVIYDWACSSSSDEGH
Method: (§1) Tandem affinity STREP-HA purifications were performed as previously described³. In brief, cells were stimulated with doxycycline/tetracycline for 24 h to induce expression of SII-HA-tagged bait proteins. Induction of SII-HA-LAMTOR 3 was combined with 9 h starvation in serum free medium. Protein complexes were isolated by TAP using streptavidin agarose followed by elution with biotin, and a second purification step using HA-agarose beads. Proteins were eluted with 100 mM formic acid, neutralized with triethylammonium bicarbonate (TEAB) and digested with trypsin, and the peptides were analysed by LC-MS/MS.

SLC38A2 = target: T2, SLC38A2 (human, UniProt Q96QD8 1-506); assay: as above
T2 construct: N-terminally SII-HA tagged bait
T2 sequence (looked up): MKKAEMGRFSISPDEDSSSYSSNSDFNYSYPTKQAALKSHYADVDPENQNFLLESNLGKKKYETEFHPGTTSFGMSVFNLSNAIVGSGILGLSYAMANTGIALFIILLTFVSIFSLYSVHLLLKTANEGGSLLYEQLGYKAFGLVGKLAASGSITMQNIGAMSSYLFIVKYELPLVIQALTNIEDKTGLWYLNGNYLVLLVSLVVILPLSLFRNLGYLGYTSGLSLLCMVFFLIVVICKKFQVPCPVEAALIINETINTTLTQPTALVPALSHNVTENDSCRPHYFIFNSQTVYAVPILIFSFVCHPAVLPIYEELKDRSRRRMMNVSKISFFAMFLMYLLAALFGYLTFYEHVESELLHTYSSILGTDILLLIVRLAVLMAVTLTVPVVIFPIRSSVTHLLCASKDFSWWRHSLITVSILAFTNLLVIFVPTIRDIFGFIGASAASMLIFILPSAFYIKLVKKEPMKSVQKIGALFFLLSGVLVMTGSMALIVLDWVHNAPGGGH
Method: as §1

B1: RAGD (enzyme, human, UniProt Q9NQL2 1-400, looked up)
chain: MSQVLGKPQPQDEDDAEEEEEEDELVGLADYGDGPDSSDADPDSGTEEGVLDFSDPFSTEVKPRILLMGLRRSGKSSIQKVVFHKMSPNETLFLESTNKICREDVSNSSFVNFQIWDFPGQIDFFDPTFDYEMIFRGTGALIFVIDSQDDYMEALARLHLTVTRAYKVNTDINFEVFIHKVDGLSDDHKIETQRDIHQRANDDLADAGLEKIHLSFYLTSIYDHSIFEAFSKVVQKLIPQLPTLENLLNIFISNSGIEKAFLFDVVSKIYIATDSTPVDMQTYELCCDMIDVVIDISCIYGLKEDGAGTPYDKESTAIIKLNNTTVLYLKEVTKFLALVCFVREESFERKGLIDYNFHCFRKAIHEVFEVRMKVVKSRKVQNRLQKKKRATPNGTPRVLL
notes: Named in the results only as one of the four RAG GTPases; also called RAG GTPase D
**Q.** Does B1 bind (SLC38A1)?
**A.** Result: no binding

**Q.** Does B1 bind (SLC38A2)?
**A.** Result: no binding
